Laboratory results: patent publication US20190177366A1 (published 2019)
Values joined by “and” are separate entries in the source; they are usually repeats but may differ in a detail not shown here. Equal entries are not always repeated. Bridge positions count the residues as written; N and C are the ends. Square brackets hold non-standard residues; d marks the D form. * marks the point of attachment. 5FAM = O=C1OC2(c3ccc(O)cc3Oc3cc(O)ccc32)c2ccc(C(=O)*)cc21; Ach = 2-aminocyclohexane-1-carboxylic acid; Fmoc = O=C(OCC1c2ccccc2-c2ccccc21)*; hArg = N=C(N)NCCCC[C@H](N)C(=O)O; Pentanoyl = CCCCC(=O)*

Experiments:
[1] = molecular target: T1, His-tagged, full-length PCSK9 (human, UniProt A8T644 31-152; Q8NBP7 153-692); experiment: TR-FRET competition; competitor EGF(A)-Fc on His-PCSK9
T1 construct: Target protein of the PCSK9/EGF(A) TR-FRET assay (10 nM); also called His-PCSK9; proprotein convertase subtilisin/kexin type 9

[2] = molecular target: T2, human PCSK9 (proprotein convertase subtilisin/kexin type 9), His-tagged, full-length (human, UniProt A8T644 31-152; Q8NBP7 153-692, limits assumed); experiment: TR-FRET competition vs EGF(A)-Fc on His-PCSK9
T2 construct: The secreted protein is the prodomain plus the catalytic/Cys-rich part (N-terminus S153) after autocleavage; also called His-PCSK9; NARC-1

[3] = molecular target: T2, human PCSK9 (proprotein convertase …); experiment: SPR, SensiQ Pioneer FE, amine-coupled protein, OneStep gradient injection (Method 3)

T1 sequence (A8T644 31-152 limits assumed, chain 1 of 2): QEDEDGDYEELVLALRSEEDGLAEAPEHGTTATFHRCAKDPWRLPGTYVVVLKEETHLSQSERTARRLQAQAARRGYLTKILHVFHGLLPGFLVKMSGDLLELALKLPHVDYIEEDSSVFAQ
T1 sequence (A8T644 other isoform, or with tags, fused parts or gaps limits assumed, chain 2 of 2): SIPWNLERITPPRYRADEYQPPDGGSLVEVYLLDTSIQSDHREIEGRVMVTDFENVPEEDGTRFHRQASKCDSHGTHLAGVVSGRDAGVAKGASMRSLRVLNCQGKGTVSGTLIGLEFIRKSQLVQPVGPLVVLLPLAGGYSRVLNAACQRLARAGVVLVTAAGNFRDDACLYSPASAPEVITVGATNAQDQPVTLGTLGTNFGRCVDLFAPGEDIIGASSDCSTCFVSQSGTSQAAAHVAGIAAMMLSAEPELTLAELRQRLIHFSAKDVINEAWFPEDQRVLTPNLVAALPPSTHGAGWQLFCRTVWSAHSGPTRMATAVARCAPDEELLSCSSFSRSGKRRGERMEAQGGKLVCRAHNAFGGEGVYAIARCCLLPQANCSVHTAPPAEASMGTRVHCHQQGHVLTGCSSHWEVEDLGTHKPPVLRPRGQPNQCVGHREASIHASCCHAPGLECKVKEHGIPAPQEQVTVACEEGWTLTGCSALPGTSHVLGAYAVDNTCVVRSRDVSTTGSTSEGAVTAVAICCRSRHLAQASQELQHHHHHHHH
T2 sequence (A8T644 31-152 limits assumed, chain 1 of 2): as the sequence (A8T644 31-152 limits assumed, chain 1 of 2) above
T2 sequence (A8T644 other isoform, or with tags, fused parts or gaps limits assumed, chain 2 of 2): as the sequence (A8T644 other isoform, or with tags, fused parts or gaps limits assumed, chain 2 of 2) above

| Binder | IC50 [2] | also measured |
| --- | --- | --- |
| Ac-GSGCWNLKRIGSQGCW-NH2 (disulfide 4-15 (inferred)) [Compound 40] |  | IC50 [1]: 5.96 µM |
| Ac-DLMPWNLVRIGLLR-NH2 [Compound 35] | > 50 µM |  |
| Ac-DLMPWNLVRIGLLA-NH2 [Compound 54] | > 50 µM |  |
| Ac-DLMPWNAVRIGLLR-NH2 [Compound 61] | > 50 µM |  |
| Ac-DLMPWALVRIGLLR-NH2 [Compound 62] | > 50 µM |  |
| Ac-DLMPANLVRIGLLR-NH2 [Compound 41] | > 50 µM |  |
| Ac-DLMAWNLVRIGLLR-NH2 [Compound 42] | > 50 µM |  |
| Ac-DLMPWNLVAIGLLR-NH2 [Compound 59] | > 50 µM |  |
| Ac-DLMPWNLARIGLLR-NH2 [Compound 60] | > 50 µM |  |
| Ac-DLMPWNLVRIGALR-NH2 [Compound 56] | > 50 µM |  |
| Ac-DAMPWNLVRIGLLR-NH2 [Compound 44] | > 50 µM |  |
| Ac-DLMPWNLVRAGLLR-NH2 [Compound 58] | > 50 µM |  |
| Ac-DLAPWNLVRIGLLR-NH2 [Compound 43] | > 50 µM |  |
| Ac-CRLPWNLQRIGLPC-NH2 (disulfide 1-14 (inferred)) [Compound 32] |  | Kd [3]: 1.3 µM |
| Ac-CRLPWNLARIGLPC-NH2 (disulfide 1-14; SMILES CC[C@H](C)[C@@H]1NC(=O)[C@H](CCCNC(=N)N)NC(=O)[C@H](C)NC(=O)[C@H](CC(C)C)NC(=O)[C@H](CC(N)=O)NC(=O)[C@H](Cc2c[nH]c3ccccc23)NC(=O)[C@@H]2CCCN2C(=O)[C@H](CC(C)C)NC(=O)[C@H](CCCNC(=N)N)NC(=O)[C@@H](NC(C)=O)CSSC[C@@H](C(N)=O)NC(=O)[C@@H]2CCCN2C(=O)[C@H](CC(C)C)NC(=O)CNC1=O) [Compound 73] |  | Kd [3]: 11 µM |
| Ac-CRL[Ach]WNLQRIGLPC-NH2 (disulfide 1-14) [Compound 82] |  | Kd [3]: 118 µM |
| Ac-DLMPWNLVRIG-NH2 [Compound 48] | > 50 µM |  |
| Pentanoyl-WNLVRIGLLR-NH2 (SMILES CCCCC(=O)N[C@@H](Cc1c[nH]c2ccccc12)C(=O)N[C@@H](CC(N)=O)C(=O)N[C@@H](CC(C)C)C(=O)N[C@H](C(=O)N[C@@H](CCCNC(=N)N)C(=O)N[C@H](C(=O)NCC(=O)N[C@@H](CC(C)C)C(=O)N[C@@H](CC(C)C)C(=O)N[C@@H](CCCNC(=N)N)C(N)=O)[C@@H](C)CC)C(C)C) [Compound 111] | > 50 µM |  |

| Binder | IC50 [2] | also measured |
| --- | --- | --- |
| Ac-PWNLVRIGL-NH2 [Compound 119] | > 50 µM |  |
| Ac-FCLWNLKRIGAQCWF-NH2 (disulfide 2-13; SMILES CC[C@H](C)[C@@H]1NC(=O)[C@H](CCCNC(=N)N)NC(=O)[C@H](CCCCN)NC(=O)[C@H](CC(C)C)NC(=O)[C@H](CC(N)=O)NC(=O)[C@H](Cc2c[nH]c3ccccc23)NC(=O)[C@H](CC(C)C)NC(=O)[C@@H](NC(=O)[C@H](Cc2ccccc2)NC(C)=O)CSSC[C@@H](C(=O)N[C@@H](Cc2c[nH]c3ccccc23)C(=O)N[C@@H](Cc2ccccc2)C(N)=O)NC(=O)[C@H](CCC(N)=O)NC(=O)[C@H](C)NC(=O)CNC1=O) [Compound 96] |  | Kd [3]: 46.4 µM |
| Pentanoyl-WNLV[hArg]IGLTR-NH2 (SMILES CCCCC(=O)N[C@@H](Cc1c[nH]c2ccccc12)C(=O)N[C@@H](CC(N)=O)C(=O)N[C@@H](CC(C)C)C(=O)N[C@H](C(=O)N[C@@H](CCCCNC(=N)N)C(=O)N[C@H](C(=O)NCC(=O)N[C@@H](CC(C)C)C(=O)N[C@H](C(=O)N[C@@H](CCCNC(=N)N)C(N)=O)[C@@H](C)O)[C@@H](C)CC)C(C)C, also called n-BuC(O)-WNLV(homoR)IGLTR-NH2) [Compound 118] | > 50 µM |  |
| Pentanoyl-WNLVRIGLTR-NH2 (SMILES CCCCC(=O)N[C@@H](Cc1c[nH]c2ccccc12)C(=O)N[C@@H](CC(N)=O)C(=O)N[C@@H](CC(C)C)C(=O)N[C@H](C(=O)N[C@@H](CCCNC(=N)N)C(=O)N[C@H](C(=O)NCC(=O)N[C@@H](CC(C)C)C(=O)N[C@H](C(=O)N[C@@H](CCCNC(=N)N)C(N)=O)[C@@H](C)O)[C@@H](C)CC)C(C)C) [Compound 112] | > 50 µM |  |
| Pentanoyl-WNLVRIGTLR-NH2 (SMILES CCCCC(=O)N[C@@H](Cc1c[nH]c2ccccc12)C(=O)N[C@@H](CC(N)=O)C(=O)N[C@@H](CC(C)C)C(=O)N[C@H](C(=O)N[C@@H](CCCNC(=N)N)C(=O)N[C@H](C(=O)NCC(=O)N[C@H](C(=O)N[C@@H](CC(C)C)C(=O)N[C@@H](CCCNC(=N)N)C(N)=O)[C@@H](C)O)[C@@H](C)CC)C(C)C) [Compound 114] | > 50 µM |  |
| Pentanoyl-WNLVRIGTTR-NH2 (SMILES CCCCC(=O)N[C@@H](Cc1c[nH]c2ccccc12)C(=O)N[C@@H](CC(N)=O)C(=O)N[C@@H](CC(C)C)C(=O)N[C@H](C(=O)N[C@@H](CCCNC(=N)N)C(=O)N[C@H](C(=O)NCC(=O)N[C@H](C(=O)N[C@H](C(=O)N[C@@H](CCCNC(=N)N)C(N)=O)[C@@H](C)O)[C@@H](C)O)[C@@H](C)CC)C(C)C) [Compound 113] | > 50 µM |  |
| Fmoc-GSGCWNLKRIGSQGC-NH2 (disulfide 4-15; SMILES CC[C@H](C)[C@@H]1NC(=O)[C@H](CCCNC(=N)N)NC(=O)[C@H](CCCCN)NC(=O)[C@H](CC(C)C)NC(=O)[C@H](CC(N)=O)NC(=O)[C@H](Cc2c[nH]c3ccccc23)NC(=O)[C@@H](NC(=O)CNC(=O)[C@H](CO)NC(=O)CNC(=O)OCC2c3ccccc3-c3ccccc32)CSSC[C@@H](C(N)=O)NC(=O)CNC(=O)[C@H](CCC(N)=O)NC(=O)[C@H](CO)NC(=O)CNC1=O) [Compound 98] |  | IC50 [1]: 37.6 µM |
| 5FAM-SGSGCFIPWNLQRIGLLC-NH2 (disulfide 5-18 (inferred)) [Compound 33] |  | Kd [3]: 6.01 µM |
| Ac-CFIPWNLQRIGLLC-NH2 (disulfide 1-14 (inferred)) [Compound 31] |  | Kd [3]: 5.83 µM |
| Ac-CWNLKRIGSQGCW-NH2 (disulfide 1-12 (inferred)) [Compound 39] |  | IC50 [1]: > 50 µM |
| Ac-DLMPWNLVRIGLL-NH2 [Compound 46] | > 50 µM |  |
| H-WCLWNLKRIGSQCWF-OH (disulfide 2-13; SMILES CC[C@H](C)[C@@H]1NC(=O)[C@H](CCCNC(=N)N)NC(=O)[C@H](CCCCN)NC(=O)[C@H](CC(C)C)NC(=O)[C@H](CC(N)=O)NC(=O)[C@H](Cc2c[nH]c3ccccc23)NC(=O)[C@H](CC(C)C)NC(=O)[C@@H](NC(=O)[C@@H](N)Cc2c[nH]c3ccccc23)CSSC[C@@H](C(=O)N[C@@H](Cc2c[nH]c3ccccc23)C(=O)N[C@@H](Cc2ccccc2)C(=O)O)NC(=O)[C@H](CCC(N)=O)NC(=O)[C@H](CO)NC(=O)CNC1=O) [Compound 66] |  | IC50 [1]: 31.3 µM |
| Ac-DLMPWNLVRI-NH2 [Compound 49] | > 50 µM |  |
| Ac-WNLVRIGL-NH2 [Compound 120] | > 50 µM |  |
| Ac-CWNLKRIGSQGC-NH2 (disulfide 1-12 (inferred)) [Compound 21] |  | IC50 [1]: > 50 µM |
| Ac-DLMPWNLVRIGL-NH2 [Compound 47] | > 50 µM |  |
| 5FAM-SGSGCRLPWNLQRIGLPC-NH2 (disulfide 5-18 (inferred)) [Compound 34] |  | Kd [3]: 4.47 µM |
| Ac-GSGCWNLKRIGSQGC-NH2 (disulfide 4-15 (inferred)) [Compound 22] |  | IC50 [1]: 42 µM and > 50 µM |
